# Data reported in publication PMC11261718.
# Molecular target: West Nile virus NS5 protein, wild-type, with a C-terminal Flag tag (UniProt P06935)
# Assay: co-immunoprecipitation (NS5-Flag IP, western blot for NS3-myc)
# Conditions: parent: 100
substance,measurement,setting,value
"West Nile virus NS3 protein, wild-type, with a C-terminal myc tag (from UniProt P06935) R186A",percent of parent,IP with RNase,69%
same,percent of parent,IP without RNase,107%
